The values that follow come from a protein production outcome set (Wang et al. 2014).

This data set can be described thus: label from the status in PepcDB records.
For “MHPCHRPSFAFLRHPLSIVVCLALLAGCSTSPLQFPEPLLAKSEKAKATEGVALVSDDGKKAPASLAVPKTEFSGTPTSPRSIVGGVVDRMDKAILDDKKADISLNVEDVQLAAFINEVFGNILGLPFEIESALKEKTDRVTVRLEQPQTAQMVYEVARQVLVNYGVEILHQGDIYRFQIKQVGLSPDEPPILISGEARPSVPIAYRPVFQFVALHSVDPKDVIPWLNSAYEKSGLSVMADGARSGLMLKGMSSIVNQATEAVRLLDQPFMRGRHSLRIDPAFVSAADMASQLKTVIAAQGYSVGIGEAVGSIMLVPLESSNGLIVFANDGQLLDLVREWAQQVDRAPMAVAAGIGEEKEGLFFYEARNTRVTELAKSLRALVSGFAGEGAYGITSGLQSSASKRSGGGRRAGDDGAAPAVAPLLQAAGAAALVGGDGANGLLGGLAAGISGSGTIVEDENRNAILFRGAARTWQQMQGLLREMDKPARQVLIEVTVASVSLSDTQELGVEWEMLNGSFNSATSTGSKGSAGKGGFNYVINTAGGNTAAIQAMADNQRVRVLATPRILVKSGEQANINVGRDIPIPTAQVNDDSTTAGSTNLRNEIAYRSTGTILNVAPVVYSDSRVDLTVSQELSDSGGSSGGGGKASGGGISAPEISRTSLETSLTLKSGGSVLMGGLIRDNITDSNAGVPLLKDIPGIGFLFGRQKAVKTREEVIMLIQPYVLESDADAREVTEKLHAMLSKTLACSDRPGACRME”, the protein production entry is on record as “failed”.

As to “MEKYQNLLVVIDPNQDDQPALRRAVYIVQRNGGRIKAFLPVYDLSYDMTTLLSPDERNAMRKGVINQKTAWIKQQARYYLEAGIQIDIKVIWHNRPYEAIIEEVITDKHDLLIKMAHQHDKLGSLIFTPLDWQLLRKCPAPVWMVKDKEWPEYGTIVVAANLSNEESYHDALNLKLIELTNDLSHRIQKDPDVHLLSAYPVAPINIAIELPDFDPNLYNNALRGQHLIAMKELRQKFSIPEEKTHVKEGLPEQVIPQVCEELNAGIVVLGILGRTGLSAAFLGNTAEQLIDHIKCDLLAIKPDGFTCPITVDSDNE”, the protein production entry was “not failed”. On to “MRILSIHLKNIKSHRDTELTFSAGINVLSGPNGVGKSTVFEAIGYALFGVDARDFVSNVDRFLSIGTKKGEIAVAFCTDAGETWRVTRTVGTPAKWLLAREQGGAFEVEEHARIEETEARIAELLGLDNGRPLAEQFKLVIGPFQNEFLGPFVIKQPTKRQEAFDEILGIDAWRKTYKSTSSLLSAVQEKIKIIAVEIEAKEAQVAVLPEREDELAKIKTDAEALRKVLSSQADALRDVEKQLVELDDQEKGIAALQAEIQILVNRITDGEGKIKDQGQRVGEAEKAGGVLEQTRAGKEAFERAESRLAELVSKDKQRREVEKDVTRLENETQRLTQAVEHEQKEIEGEGRRLREEEDALAKARNELEPDRKVVDTAGRLPGLRDEINRVRSEKGLLEGRRIGLLEGQEKLGEGTCPFFKEPCRNVAGTTPKDVFTTRIAELDRKMQALTEALGKLSVEVADAEAAEKQLAALTVRSQELHKQTMGLVERRARNEKRVATLQTLSTQQIEAATRAKARRDDLQVFAGLDHEIERATAERGRFQADRDAYHAHEKDALDLDNRRQTLEKMLRLLDELQKQLIGKKEELIRLQETYKPGQHKEARDQKDRLVAQVASLGQQIENLEKDRKRLEDEIGKLKLLKDEIGRKQAERNSFEQKEKLVKFLRNQVFKNVSAQLSERFREEISLRADRIYRTIAEADEELVWSENYQIVLRDMTDGVVRERSDDQLSGGQTMSAVVALRLALLQTIGARIAFFDEPTSNLDASRRENLATAFRAIDVGREEVTEHWYDQLFLISHDVAFTEITDQMIQLGE”, for which the protein production result is given as “failed”. Consider “SVSAGVQAVESILDREEIRRVILVGAGTGAGVALEIAKNQPRRVERLVLDSPLVTFDEKQLKGMSTALKMMPGFFFRKKNKKDLLQQVEEARTAVPMGFSEITMPTLIIRGSAAKAGIDSDLEKQIPSARATTIIGANWLTYTTHGRQTGAAIAEFLAQ”, for which the protein production entry is on record as “failed”. For the sequence “MSLSLKIALISQNENLLNLFPKLALEKNFIPITKTASLTRASKIAFGLQDEVDAIISRGATSDYIKKSVSIPSISIKVTRFDTMRAVYNAKRFGNELALIAYKHSIVDKHEIEAMLGVKIKEFLFSSEDEITTLISKVKTENIKIVVSGKTVTDEAIKQGLYGETINSGEESLRRAIEEALNLIEVRNEGHHHHHH”, the protein production entry is on record as “not failed”.

For “MDQSTRARTRTAFAIDAVGQGAKAAVKAVWWTATGGLARSLTRPTEGPQARRFTPAAPPPVPGSLRRAYLEAFEKDARDVAAGLYPAIEDGPIRPSAALREAVDFLVDAFEVDQRRRRGDGAEVRNAADPSVYPNYYRQNFHYQSGGWFTAESAGRYDAQVEALFSGTAGAMRRRGLSLLARHWRGRDHRDAKILDVACGSGAFLKDLSAAFPRAALAGLDLSEAYLAKARKRTAVGGVKAKAETLPFGDATLDAVTCVYLFHELPPRVRPVVAASLARVLKPGGVLVLVDSVQPVDTPDLARLLEAFPVYFHEPYYSSYAETNLEALFAEAGLRLLDQDCAFLTKAMLFVKPGG”, the protein production result is recorded as “failed”. With “MLDLFGYKRRKTSVAQIGDTPLGGDFPIRIQSMANVSTMDTQASVDQAARIIDAGADYVRFTAQGVREAVNLQHIHAGLCRLGYHIPLVADIHFSPKAAEEALLHVEKVRINPGNFVEMKSGGNLTEEEAFDLGHKAVRERFGSFVEDAKRLGRAIRIGVNHGSLSERMLTRYGDTAEGMVQSCMEYLDVCHEHEFDDVVISMKASNTLVMTAAVRLLVERMDAADMHYPLHIGVTEAGDGEDGRIKSAVGIGSLLADGIGDTIRVSLSEDPEHEIPVARKLLAYIEKRNGHPSVAVPQPDRYDRDKLRRQETYAVGDFIGSKHIPIVISDRRQGDDHFDTELLPDIVLGADGRYYREDMLLENIVFRSIRQDDLTDDCLQTIEAISDTVIILESVGINPVAEWRAMLHRLELAGCRCPVILHRRYDCTDLEDLQLQASADMGAILLEGRGNGLMITADKLPSVAVNHLAFGILQATR”, the protein production result is recorded as “failed”.

Consider “MPRRDLLDLLALAAVWGGSFLFMRVAVPEFGPAALMELRVGLAALFLLPLALWRGKPALIARHWKAILVVGTLNSALPFLLYAYAAQSLGAGFLSVANAVTPVWGAVIGWLWLGDRLPRMRALGLLISLSGIIVLVWDKLDFHDGGTGPAVLAAISAPVFYGMAANWTKRYLGHVDALTNATGSMVAASLVLAPLAIIHWPEQAVSFEAWRATVLLAIVCTGAAYIVFFRLIARVGPTAAVSVTFLVPVFGVLWGVWFLDEAVTPRILAGAGVILVGTALALGLVGARRVAAAD”, for which the protein production result is “failed”. In the case of “MVRLDLPWDLVDEILSRLPATSLGRLRFTCKRWNALFKDPEFITKQFHKAAKQDLVLMLSNFGVYSMSTNLKEIPNNIEIAQVFHCNGLLLCSTEEGNKTKLVVVNPCTGQTRWIEPRTDYNYNHDIALGYGNNSTKKSYDSYKILRITYGCKLVEIFELKSNSWRVLSKVHPNVEKHYYGGVSFKGNTYWLSYTKFNILSFDFTTETFRSVPLPFLYQDGFVTLALSVVREEQLLLLRSRFDMGQVGIWMCNKIDTETVLSWSKSFTLEFDSLRDLPVMSILRIFIEEDKKVIVVDCDDRWKENMIYIVGKNGFKKLSYEKDRSNLWRLPFFFSYVPSLVGLYPPM”, the protein production entry is “failed”. The result for “MEKLEVGQLAPDFRLKNSDGVEISLKDLLHKKVVLYFYPKDNTPGCTLEAKDFSALFSEFEKKNAVVVGISPDNAQSHQKFISQCSLNVILLCDEDKKAANLYKAYGKRMLYGKEHLGIIRSTFIINTQGVLEKCFYNVKAKGHAQKVLESL” reads “failed”; that for “MDLRAIAMGLAFAFMWSSAFSSARIIVADASPLFSLACRFLISGLLGVIIARAMGQTWRLTRNQWKATIVFGICQNALYLGLNFYAMQTVEASVAAIIASTMPLLVALASWGLFGERLPALGIAGLLAGFLGVALIMGARIGAGVDLFGVLLCGLGALALAAATLALRGATSGGNFMMVVGLQMLVGSAVLFLATPIFETVHVTPTLPLALAFAYTTLVPGLTATFVWVLLLNRIGAIRAATFHFLNPVFGVAIAAALLGERLGALDAIGVAITTAGILAVQLSRQASARKP”, “failed”.

As to “MRETRPNPQEILKEINKNEKDSKRGKLKIFFGYAAGVGKTYAMLEAAHSAIAMGLDVVVGYIEPHTRPETLALLEGLELLPNLEVAYRGLVLREFNLDLALSRKPDLIIVDELAHTNVKGLRHEKRYSDIEELLDAGIDVYTTLNVQHIESLNDVVASITNIVVKERIPDRIFKNAFQIELIDVDPSVLIERLNSGKIYVKNQAKKALKNFFIRENLVALRELALRETANSVNKEVMINKNENFYHTNEHILVCLSSSPSNSKVIRTSARMAEAFHGKFTALFVETTSSRELKEGNIERLREHVKLAKDLGAKIETVYGDDVAYQVSEFSKISSVSKVIIGRTKKKRHLWSRFGIVDRLIELAPELDVYIIPDEEENVEDINKICLNKEKITIKDSLKTLGILIITIIISLFFENLGFSEANIIIVFILGVLIIAKETYGRIYGVISSLFSVLLFNFFFTEPKFTFNAYDSSYIFTFFIMLVSALITSTLTNKVKVQANKSAITAYRTNILLESSSELGRCSDLEEIILKSQEQVSRLVKKPVVVYKAKNSQIENIYNYKFKDGSELSDKYINLDEQGVVLWVINNRKYAGKGTETLPGAKAMYIPVLGQEDIGIVIGIILEEGEELEEGEKSLLIAMINQVSFVIDNYILEEAKKQALMQAENEKFKANLLRAVSHDLRTPLTSISGSASLLLNNNFDEETKRKLTLDIYDDSIWLINLVENLLSVSRIDNGNINLNREAQLVEEIILEALQHVNRNACDYNIEIDLKDELLMVNADVRLIIQVIINIVDNAIKYTEKGSNIKISAFSKGDNVIIEIADNGVGISKEDKEHIFDMFFTSKKNISDSRRGLGLGLALCKSIINVHEGEIYVRDNKPRGTIIGFSLQRFEVNNNETSNFSY”, the protein production result was “failed”. Take “MPMTVVSGRFSTALLPTCFSLSRLHSVKYAAQRRVVFVSRSAHASSASVSVETNSNSNVDFVIEKKDKNRGEKKILACPICYNSLAWISQPNGLIESAASGIQVQCNTCKRSYSGNETHLDLAVASGSKRYSEPMPLSTELFRTPLVSFLYERGWRQNFIWGGFPGPEKEFEMAKAYLKPVLGGNIIDASCGSGMFSRLFTRSDLFSLVIALDYSENMLRQCYELLNKEENFPNKEKLVLVRADIARLPFLSGSVDAVHAGAALHCWPSPSSAVAEISRVLRPGGVFVATTFIYDGPFSFIPFLKNLRQEIMRYSGSHIFLNERELEDICKACGLVNFTRVRNGPFIMLSATKPS”: the protein production result was “failed”. “MTPRHQRDLSRRKLLAALAGTAVAVPAAAMGAPHALATVASDNGGAAPRAAGALPLTIVNRTGSFANSSVHLYIVGNEDGKQVRVTSEGTLAPISLADNGADGFTDYAIALSGSGETRLSLPYMSGRIYVALGDKLKLKAVADGNGNAALQYPAGWVESDPNYRVLHDCAEFTHNSAGMFCNTTMVDMFSVPLSIRLTGTKDQTTGTLRDGGRARVFAAVKSVPEFERLVVDDLRVIAPGHGLDAGIFAEDYFAPYIDEVWSTYTGKDLTVTTNAGAFTGRVRGDKLTFTGPASVSFSKPSTRDVFFCDGSLAAPNDGTTGPVAAVLGAGFNRSTLVNDSAQPTTDPAAFYGSALANHYAKAIHAATEDGKAYGFAFDDVADFASYIQDTAPTGINLTLTPF”: the protein production result is listed as “failed”. On to “MPTTQLHHHYVLCGWHVRSALTLPELPPWSATATPVDADVVIEEGEVPDRLDLHDPVESWLSVGRDGSVLLQVPQVVRIHVHAGRAMRVQRLNRHDESWRLFLLGSALGYLCLQRSLFPLHAACLRIGTQTVAFAGHSGAGKSTLAAALLKRGHGLLSDDLTVIRLDSAGAIMVLPAFPRLKLWRDTLESLQLPVTDAPPVRPGMEKFDLRPSAGFDAAPVRLDAVVVLGDASEPHLQRLSPQHALPLLHGYLARPQAAVRMGLHAATFAHAAAIARQVPVWRLRRPRRFDALDITVDLIEAHVGALEHHHHHH”, for which the protein production entry is on record as “failed”. “MSKLSLIQQLKQQKLSVGILSANWLQLNEEVTTLLENQINVLHFDIADGQFSSLFTVGAIGIKYFPTHCFKDVHLMVRNQLEVAKAVVANGANLVTLQLEQYHDFALTIEWLAKQKTTYANQVYPVLIGACLCPETPISELEPYLDQIDVIQLLTLDPRNGTKYPSELILDRVIQVEKRLGNRRVEKLINIDGSMTLELAKYFKQGTHQIDWLVSGSALFSGELKTNLKVWKSSIM”: the protein production entry is on record as “not failed”.
